# Measurements as given in the RNAGym collection of RNA variant scans (doi:10.1093/nar/gkz1192).
# B1: CPEB3 Ribozyme (parent)
# chain: UAACAGGGGGCCACAGCAGAAGCGUUCACGUCGCAGCCCCUGUCAGAUUCUGGUGAAUCUGCGAAUUCUGCUGUAUAUCUC
# Variants of: B1
# Assay: self-cleavage, relative activity (ratio to wild type); higher = more cleavage; in vitro, sequencing
# Outline: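 CPEB3 self-cleaving ribozyme mutant libraries were made by rounds of error-prone PCR, barcoded, and transcribed in vitro with T7 RNA polymerase for 5 hours at 37°C. Cleavage occurred during transcription and a 15 min DNase I step before EDTA stop. RNAs were reverse transcribed with template switching and Illumina-sequenced, with DNA sequencing mapping barcodes to variants. Relative activity is the variant's cleaved/total read fraction divided by wild type's (minimum 5 reads), averaged across three batches.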
row,Variant,self-cleavage
1,C17U G61U,0.27
2,C17U C38A,0.39
3,G16C U74C,0.25
4,G16C U74A,0.38
5,C17U G30U,0.09
6,A18C U54C,0.32
7,A18C U54A,0.37
8,C17U A28G,0.36
9,C17U A28C,0.51
10,C17U A28U,0.41
11,A18C U69C,0.35
12,A18C U69A,0.52
13,G16U U54G,0.55
14,G16U G24A,0.19
15,G16U G24U,0.11
16,C17A A57G,0.34
17,C17G A56G,0.38
18,A18G C40U,0.44
19,A18G C40A,0.14
20,C17U U43A,0.98
21,C17U U43C,0.41
22,A18G C38U,0.73
23,A18C A28U,0.37
24,A18C A28C,0.43

row,Variant,self-cleavage
1,A18C A28G,0.29
2,C17G U58C,0.22
3,C17A A75U,0.2
4,A18G C59A,0.23
5,C17G A35U,0.32
6,C17G A35G,1.04
7,A18C C37A,0.33
8,C17G U60A,0.19
9,C17G U60G,0.25
10,G16U U49C,0.1
11,G16U U49G,0.14
12,A18C C62U,0.39
13,C17G U26C,0.16
14,C17G U26A,0.29
15,A18C A45G,0.29
16,A18C A45C,0.21
17,A18C A45U,0.1
18,C17U C34A,0.16
19,C17U G53C,0.66
20,A18C A47G,0.26
21,A18C C29U,0.31
22,G16U U60G,0.21
23,C17U U41C,0.32
24,C17U U41G,0.37

row,Variant,self-cleavage
1,C17U U41A,0.24
2,A18G,0.71
3,A18C,0.41
4,G16U C23U,0.16
5,G16U U26C,0.24
6,G16U U26A,0.26
7,A18C A20G,0.44
8,A18C A20U,0.15
9,A18G A64U,0.29
10,A18G A64G,0.43
11,A18C U60A,0.23
12,A18C U60C,0.28
13,G16U C39U,0.46
14,A18G C29A,0.26
15,A18G C29U,0.42
16,C17U U76C,0.83
17,G16C G22C,0.07
18,G16C U25C,0.21
19,A18C U78C,0.4
20,C17U A64G,0.52
21,C17U A64U,0.3
22,G16U G61A,0.18
23,A18C A77G,0.26
24,A18G C37A,0.32

row,Variant,self-cleavage
1,C17A A20G,0.3
2,C17G U80A,0.37
3,C17U G36A,0.17
4,C17G U25G,0.06
5,C17G U25C,0.11
6,C17G U25A,0.09
7,C17U G73A,1.09
8,A18G A45G,0.46
9,A18G A45U,0.35
10,A18G A45C,0.3
11,C17U U74C,0.97
12,C17U U74A,1.02
13,A18C C32U,0.43
14,G16U C32A,0.2
15,C17G A28G,0.16
16,C17G A28C,0.21
17,C17A U25C,0.2
18,C17A U25G,0.47
19,C17U U26G,0.09
20,C17U U26C,0.29
21,C17U U26A,0.6
22,A18C U43C,0.21
23,A18C U43G,0.07
24,A18C U43A,0.64

row,Variant,self-cleavage
1,C17G U72C,0.31
2,C17G U72A,0.21
3,G16U A57G,0.26
4,G16U A47U,0.16
5,G16U A47G,0.32
6,G16C G36U,0.17
7,A18G C32G,0.1
8,A18G C32A,0.15
9,A18G C32U,0.2
10,G16U C81U,0.35
11,C17U G24C,0.11
12,C17G A18G,0.11
13,C17G A18U,0.4
14,C17A U31A,0.15
15,A18C U26C,0.44
16,A18G A65U,0.38
17,A18G A65G,0.34
18,C17G A75U,0.52
19,C17G U78C,0.48
20,C17A U66C,0.07
21,G16C U41C,0.42
22,G16U U41C,0.41
23,C17A U43C,0.32
24,C17G,0.35

row,Variant,self-cleavage
1,C17U,0.73
2,C17A,0.32
3,C17U A56U,0.22
4,C17U A56G,0.47
5,C17G C32U,0.27
6,C17G C32G,0.23
7,C17G U49C,0.06
8,A18C U48A,0.2
9,A18C U48C,0.25
10,A18C A65G,0.26
11,A18C A65U,0.16
12,C17U A21C,0.12
13,C17U A21G,0.32
14,C17G U31C,0.28
15,A18C A57G,0.3
16,C17U C37A,0.09
17,C17G A64U,0.17
18,C17G A64G,0.35
19,G16C U66C,0.16
20,G16C U26C,0.23
21,G16C U26A,0.3
22,G16C U31C,0.18
23,G16U A35U,0.23
24,C17U U49C,0.15

row,Variant,self-cleavage
1,G16U A45G,0.21
2,G16U A45U,0.21
3,C17G U48C,0.2
4,G16C U76C,0.41
5,A18G A77G,0.78
6,A18G A77C,0.39
7,A18G A77U,0.78
8,C17U U66C,0.23
9,C17A A21G,0.25
10,C17A G53A,0.68
11,A18C C38U,0.12
12,C17G U54A,0.54
13,C17U A57G,0.51
14,A18C G42A,0.17
15,C17U G46U,0.23
16,A18C U31C,0.28
17,A18C U31A,0.19
18,G16U U78C,0.27
19,C17A U60C,0.18
20,C17A U60A,0.26
21,G16U U76A,0.33
22,A18C G30A,0.31
23,G16U U74C,0.58
